Assay results as given in publication PMC9359528, “DNA binding by the Rad9A subunit of the Rad9-Rad1-Hus1 complex”.

Columns and labels:
Experiment in all cases: EMSA; EMSA: 20 mM Tris-HCl pH 7.6, 80 mM NaCl, 1 mM DTT, 1 mM EDTA, 1.5% glycerol, 200 ng/ml poly dI/dC, 50 ug/ml BSA, 10 nM DNA; 6% native PAGE in 50 mM Tris-borate
[1] = target: T1, QM1 Rad9A 1-266 (Homo sapiens, UniProt Q99638 1-266, K11A;K15A;R22A;K78A); settings: protein: recombinant; tags: His; label: 5'-fluorescein (6-carboxyfluorescein) on HC40; blunt
T1 sequence: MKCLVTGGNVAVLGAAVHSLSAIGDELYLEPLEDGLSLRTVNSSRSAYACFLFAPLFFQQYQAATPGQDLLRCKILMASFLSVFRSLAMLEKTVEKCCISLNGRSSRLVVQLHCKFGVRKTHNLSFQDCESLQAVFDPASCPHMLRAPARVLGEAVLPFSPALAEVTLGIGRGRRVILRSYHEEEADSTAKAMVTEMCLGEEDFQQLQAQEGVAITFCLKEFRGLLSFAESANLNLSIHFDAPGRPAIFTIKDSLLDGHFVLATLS

[2] = target: T2, TM Rad9A 1-266 (Homo sapiens, UniProt Q99638 1-266, K11A;K15A;R22A); settings: protein: recombinant; tags: His; label: 5'-fluorescein (6-carboxyfluorescein) on HC40; blunt
T2 sequence: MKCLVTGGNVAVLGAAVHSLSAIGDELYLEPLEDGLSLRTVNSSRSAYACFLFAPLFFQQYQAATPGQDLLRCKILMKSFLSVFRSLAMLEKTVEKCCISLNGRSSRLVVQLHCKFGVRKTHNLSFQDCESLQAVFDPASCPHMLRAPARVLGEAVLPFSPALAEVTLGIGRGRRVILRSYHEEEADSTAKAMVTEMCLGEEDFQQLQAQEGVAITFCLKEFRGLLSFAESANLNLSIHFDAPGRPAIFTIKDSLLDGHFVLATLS

[3] = target: T3, K220A Rad9A 94-266 (Homo sapiens, UniProt Q99638 94-266, K220A); settings: protein: recombinant; tags: His; label: 5'-fluorescein (6-carboxyfluorescein) on HC40; blunt
T3 sequence: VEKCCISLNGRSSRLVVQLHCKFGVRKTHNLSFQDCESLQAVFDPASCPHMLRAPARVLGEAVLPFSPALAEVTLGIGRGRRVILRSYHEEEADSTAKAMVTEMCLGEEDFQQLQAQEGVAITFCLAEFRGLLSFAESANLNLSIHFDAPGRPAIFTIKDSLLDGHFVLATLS

[4] = target: T4, LD Rad9A 94-266 (Homo sapiens, UniProt Q99638 94-266, del160-163); settings: protein: recombinant; tags: His; label: 5'-fluorescein (6-carboxyfluorescein) on HC40; blunt
T4 sequence: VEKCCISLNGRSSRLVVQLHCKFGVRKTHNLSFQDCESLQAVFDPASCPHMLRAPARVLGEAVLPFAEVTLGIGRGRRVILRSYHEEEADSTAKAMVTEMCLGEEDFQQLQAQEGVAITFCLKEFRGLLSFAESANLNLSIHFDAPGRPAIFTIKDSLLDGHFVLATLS

[5] = target: T5, WT Rad9A 1-266 (Homo sapiens, UniProt Q99638 1-266); settings: protein: recombinant; tags: N-terminal His; label: 5'-fluorescein (6-carboxyfluorescein) on HC40; blunt
T5 sequence: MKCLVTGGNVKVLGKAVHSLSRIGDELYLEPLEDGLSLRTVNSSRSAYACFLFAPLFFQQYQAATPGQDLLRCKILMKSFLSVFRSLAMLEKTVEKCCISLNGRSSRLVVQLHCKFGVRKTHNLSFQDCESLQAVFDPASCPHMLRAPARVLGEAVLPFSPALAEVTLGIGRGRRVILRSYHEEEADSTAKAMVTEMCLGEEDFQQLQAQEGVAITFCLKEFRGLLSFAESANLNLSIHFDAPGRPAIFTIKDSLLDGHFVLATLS

[6] = target: T6, WT Rad9A 94-266 (Homo sapiens, UniProt Q99638 94-266); settings: protein: recombinant; tags: His; label: 5'-fluorescein (6-carboxyfluorescein) on HC40; blunt
T6 sequence: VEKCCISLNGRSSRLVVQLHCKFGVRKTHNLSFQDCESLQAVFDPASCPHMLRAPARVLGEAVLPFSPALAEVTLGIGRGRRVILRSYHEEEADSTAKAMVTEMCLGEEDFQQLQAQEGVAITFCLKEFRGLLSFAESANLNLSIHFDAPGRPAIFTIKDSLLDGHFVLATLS

[7] = target: T7, TM Rad9A 1-133 (Homo sapiens, UniProt Q99638 1-133, K11A;K15A;R22A); settings: protein: recombinant; tags: His; label: 5'-fluorescein (6-carboxyfluorescein) on HC40; blunt
T7 sequence: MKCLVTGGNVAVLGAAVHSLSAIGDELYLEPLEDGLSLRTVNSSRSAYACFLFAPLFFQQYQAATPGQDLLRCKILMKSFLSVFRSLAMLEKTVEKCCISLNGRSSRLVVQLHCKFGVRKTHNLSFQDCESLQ

[8] = target: T8, WT Rad9A 134-266 (Homo sapiens, UniProt Q99638 134-266); settings: protein: recombinant; tags: N-terminal His; label: 5'-fluorescein (6-carboxyfluorescein) on HC40; blunt
T8 sequence: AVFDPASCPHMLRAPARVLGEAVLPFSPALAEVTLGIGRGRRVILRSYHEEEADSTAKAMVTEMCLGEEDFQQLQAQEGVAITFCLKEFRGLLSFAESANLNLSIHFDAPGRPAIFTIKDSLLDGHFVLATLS

[9] = target: T9, R223A Rad9A 94-266 (Homo sapiens, UniProt Q99638 94-266, R223A); settings: protein: recombinant; tags: His; label: 5'-fluorescein (6-carboxyfluorescein) on HC40; blunt
T9 sequence: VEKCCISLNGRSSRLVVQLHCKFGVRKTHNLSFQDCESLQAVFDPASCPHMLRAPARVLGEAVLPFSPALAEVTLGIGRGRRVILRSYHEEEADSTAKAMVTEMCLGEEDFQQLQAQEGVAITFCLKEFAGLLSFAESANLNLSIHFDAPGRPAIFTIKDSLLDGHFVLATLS

[10] = target: T10, DM Rad9A 94-266 (Homo sapiens, UniProt Q99638 94-266, R150A;R223A); settings: protein: recombinant; tags: His; label: 5'-fluorescein (6-carboxyfluorescein) on HC40; blunt
T10 sequence: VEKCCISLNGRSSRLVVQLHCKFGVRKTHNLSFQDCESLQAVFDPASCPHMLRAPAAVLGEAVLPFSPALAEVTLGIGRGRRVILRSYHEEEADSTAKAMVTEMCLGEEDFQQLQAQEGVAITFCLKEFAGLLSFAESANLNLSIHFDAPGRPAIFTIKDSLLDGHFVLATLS

[11] = target: T11, WT Rad9A 1-133 (Homo sapiens, UniProt Q99638 1-133); settings: protein: recombinant; tags: N-terminal His; label: 5'-fluorescein (6-carboxyfluorescein) on HC40; blunt
T11 sequence: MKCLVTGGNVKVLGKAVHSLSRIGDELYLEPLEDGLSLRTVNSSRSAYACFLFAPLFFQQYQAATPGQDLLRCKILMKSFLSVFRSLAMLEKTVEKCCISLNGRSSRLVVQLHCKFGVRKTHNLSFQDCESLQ

B1: HC40/HG40 (dsDNA)
DNA 1: CCGAGGAATTCGCCTTCTGCTCCATAGCCACTGGTTGTAG
DNA 2: CTACAACCAGTGGCTATGGAGCAGAAGGCGAATTCCTCGG
B1 showed a Kd [1] of 1770 ± 790 nM, a Kd [2] of 120 ± 30 nM and a Kd [3] of 6400 ± 750 nM. It also gave a Kd [4] of 6120 ± 1270 nM, a Kd [5] of 50 ± 10 nM and a Kd [6] of 1500 ± 400 nM. For the same binder, the Kd [7] was 7740 ± 680 nM, the Kd [8] was 3000 ± 620 nM and the Kd [9] was 1170 ± 690 nM. It also gave a Kd [10] of 7790 ± 880 nM and a Kd [11] of 820 ± 150 nM.
